Data on one molecule can be found in EP3466970A1 (Orum Therapeutics Inc., dated 2019).

The target in this experiment is T1, mCherry (red fluorescence) H-RAS G12V expressed in NIH3T3 cells (UniProt P01112 1-186, limits assumed).
T1 construct: Intracellular target at the inner cell membrane; also called intracellular H-RAS G12V mutants
Nature of the experiment: confocal microscopy, colocalisation in NIH3T3 cells expressing mCherry H-RAS G12V.

B1: cytosol-penetrating antibody (cytotransmab) TMab4 (antibody, V domains shown)
VH: EVQLVESGGGLVQPGGSLRLSCAASGYTFTSYVMHWVRQAPGKGLEWVSAINPYNDGNYYADSVKGRFTISRDNSRKTLYLQMNSLRAEDTAVYYCARGAYKRGYAMDYWGQGTTVTVSS
VL: DLVMTQSPSSLSASVGDRVTITCKSSQSLFNSRTRKNYLAWYQQKPGKAPKLLIYWASTRESGVPSRFSGSGSGTDFTLTISSLQPEDFATYYCQQYYYHMYTFGQGTKVEIKR
notes: Intact IgG-format monoclonal antibody; Used as negative control in the RAS assays; also called CT
For the molecule B1, the binding result is “no binding (tested: 2 µM)”.
